Consider six molecules from publication PMC11879689, “Integrative in silico and biochemical analyses demonstrate direct Arl3-mediated ODA16 release from the intraflagellar transport machinery” (The Journal of Biological Chemistry, 2025).

In assay [1] the target is CrODA16 C-terminal β-propeller, CrODA16C(80-423) (Chlamydomonas reinhardtii) (UniProt Q3Y8L7). The experiment in a line: ITC; 25 °C, MicroCal iTC200; 10 mM HEPES pH 7.5, 200 mM NaCl, 0.5 mM TCEP; 20 μM CrODA16 in the cell, 200 μM IFT46 peptide or CrIDA3 in the syringe.
In assay [2] the target is T1, full-length CrODA16 (CrODA16fl) (Chlamydomonas reinhardtii, UniProt Q3Y8L7 1-446).
T1 construct: ODA16, Chlamydomonas reinhardtii, full length (N-terminal domain residues 1-80, C-terminal beta-propeller residues 80-445); it may be the same protein as CrODA16-HT
T1 sequence (looked up): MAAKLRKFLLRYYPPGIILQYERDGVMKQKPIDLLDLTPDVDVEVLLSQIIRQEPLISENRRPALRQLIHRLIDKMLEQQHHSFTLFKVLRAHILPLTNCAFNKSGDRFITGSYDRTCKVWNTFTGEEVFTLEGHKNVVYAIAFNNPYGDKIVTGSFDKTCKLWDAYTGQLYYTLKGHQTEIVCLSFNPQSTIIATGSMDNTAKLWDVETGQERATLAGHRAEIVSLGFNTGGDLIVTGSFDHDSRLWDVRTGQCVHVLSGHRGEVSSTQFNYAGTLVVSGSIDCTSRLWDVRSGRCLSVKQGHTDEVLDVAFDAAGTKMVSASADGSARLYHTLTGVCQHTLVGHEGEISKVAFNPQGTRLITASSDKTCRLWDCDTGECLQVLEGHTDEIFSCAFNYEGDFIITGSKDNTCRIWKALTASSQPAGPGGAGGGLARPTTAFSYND
The description is as above.

Assay [3] has as its target ODA16 (Chlamydomonas reinhardtii) (UniProt Q3Y8L7). The experiment in a line: ITC. To be noted: cited from earlier work.
The target in assay [4] is T2, hexa-His-tagged CrODA16 (CrODA16-HT) (Chlamydomonas reinhardtii, UniProt Q3Y8L7 1-446).
T2 construct: ODA16, Chlamydomonas reinhardtii; Bait on nickel resin
T2 sequence (looked up): T1 sequence (looked up)
The experiment in a line: pull-down; CrODA16-HT (10 μM) immobilised on nickel resin, one prey (20–30 μM), 1 h 4 °C; 10 mM HEPES pH 7.5, 200 mM NaCl, 2 mM MgCl2, 1 mM DTT; eluted with 500 mM imidazole, SDS-PAGE; CrArl3 nucleotide-free. As to conditions: both partners purified.

For assay [5], the target named is T2, hexa-His-tagged CrODA16 (CrODA16-HT). The experiment in a line: pull-down; CrODA16-HT immobilised on nickel resin; two preys added together (CrIFT46 with CrIDA3, also at 3:1 excess of CrIFT46; CrIFT46 with CrArl3), beside each prey alone. To be noted: both partners purified.
Assay [6] concerns the target T1, full-length CrODA16 (CrODA16fl). The experiment in a line: pull-down; competitive binding (titration) assay: GST-tagged bait (10 μM) pre-complexed with CrODA16 (20 μM) on GSH resin, washed, then untagged competitor at rising concentrations, 1 h 4 °C; eluted with 33 mM glutathione, SDS-PAGE. As to conditions: both partners purified.

Where two headings read alike, the source gives them in different places.

For the molecule “CrIDA3 (residues 1-166 and 241-366), untagged (domain or fragment)”, the Kd worked out at 288 nM in assay [1] and 1770 nM in assay [2]. In assay [2], this molecule registered a stoichiometry N of 0.996. For the molecule IFT46 (from UniProt A2T2X4), in assay [3], the Kd is 200 nM.

B1: CrArl3_Q70L (GTP-locked, full length) (enzyme, Chlamydomonas reinhardtii, UniProt A8ISN6 1-177, looked up)
chain: MGLLSLIRGLKKKEGEARILVLGLDNAGKTTILKALSEEDITTITPTQGFNIKSLSRDGFNLKIWDIGGLKSIRPYWRNYFDQTDALIYVIDSADSKRLSESEFELTELLQEEKMTGVPLLVFANKQDLVGALAADEIASTLDLTSIRDRPWQIQACSAKQGTGLKEGMEWMMKQVK
notes: Arl3, Chlamydomonas reinhardtii, with Q70L; codon-optimised synthetic gene; Cloned with C-terminal TEV-His8; Used nucleotide-free or loaded with GTP; also called CrArl3_Q70L-FL
Take B1: in assay [4], the binding result is given as “binds”.

B2: CrIFT46(23-44) peptide (peptide, UniProt A2T2X4 23-44, looked up)
peptide: RSQVVQNQPHDEEVNLSESESF
notes: IFT46, Chlamydomonas reinhardtii, residues 23-44; R23 and F44 mark the ends of the peptide; also called IFT46 peptide; source: synthetic peptide
For the molecule B2, the Kd in assay [2] (both partners purified) was found to be 1000 ± 380 nM.

B3: CrIFT46 (wild type, untagged) (natural protein, Chlamydomonas reinhardtii, UniProt A2T2X4 1-344, looked up)
chain: MDDSMDYPDRDGDDLDQFQGTARSQVVQNQPHDEEVNLSESESFAGADEPPAAPRDASLIESHDMDEGPAAPARTLSPTGYEAGKHAPGGIANSDEAPPGAYNAQEYKHLNVGEDVRELFSYIGRYKPQTVELDTRIKPFIPDYIPAVGGIDEFIKVPRPDTKPDYLGLKVLDEPAAKQSDPTVLTLQLRQLSKEAPGAKADMVGRLEHTDENKAKKIQQWIASINDIHKAKPAATVNYSKRMPEIEALMQEWPPEVETFLKTMHMPSGDVELDIKTYARLVCTLLDIPVYDDPVESLHVLFTLYLEFKNNPIFRQHMEMENKLDGMSGGGGGMMGGGADVLGL
notes: IFT46, Chlamydomonas reinhardtii; also called WT CrIFT46
As to B3, the binding result in assay [5] and in assay [6] was “binds” in each case.

B4: GST-CrIFT46 (natural protein, Chlamydomonas reinhardtii, UniProt A2T2X4 1-344, looked up)
chain: B3 chain
notes: IFT46, Chlamydomonas reinhardtii; also called GST-tagged CrIFT46
B4: the binding result in assay [6] is “binds”.
